Experimental data taken from patent publication US20230087785A1, “Leucine-Rich Repeat Kinase 2 Allosteric Modulators” (VIB VZW, priority 2020, published 2023).

B1: Nb42: LRRK2-specific Nanobody, SEQ ID NO: 6 (protein)
VHH: MAQVQLVESGGGLVQAGGSLRLSCAASGDVNYAVGWFRQAPRKEREFVAAINWRGDNTDYTDSVKGRFTISRDNAKNTVYLQMNSLKPEDTAVYYCAAKSAPYWYSDIAPDYWGQGTQVTVSS
modifications: Nanobody CA14259
B2: Nb6: LRRK2-specific Nanobody, SEQ ID NO: 2 (protein)
VHH: MAQVQLVESGGGLVQAGGSLRLSCAASGSIFSPTAMGWYRQAPGKERELVAGITSGGYTNYRNFARGRFTISRDNAKKTVYLQMNSLNPEDTAVYYCNTLTISWSWGQGTQVTVSS
modifications: Nanobody CA12618
B3: Nb23: LRRK2-specific Nanobody, SEQ ID NO: 3 (protein)
VHH: MAQVQLVESGGGLVQAGGSLRLSCAASGRTFSRYTMGWFRQAPGKDREFVARITTSGAVTTYADSAKGRFTISRDNAKNTVYLQMNTLKPEDTAVYYCAAGQGQLSSQSRFVDYWGQGTQVTVSS
modifications: Nanobody CA13612
B4: Nb1: LRRK2-specific Nanobody, SEQ ID NO: 1 (protein)
VHH: MAQVQLVESGGGLVQAGGSLRLSCVASGRIFSGNAMGWYRQAPGRQRELVAGITNGGYTNYRQFVKGRFTISRDNAKRTVYLQMNSLKPEDTAVYYCNALDREARQVDYWGQGTQVTVSS
modifications: Nanobody CA12610
B5: Nb22: LRRK2-specific Nanobody, SEQ ID NO: 9 (protein)
VHH: MAQVQLVESGGGLVQAGGSLRLSCAASGRTFSSYTMGWFRQAPGKEREFVAAIRWSGGSTYYADSVKGRFTISRDNAKNTVYLQMNSLKPEDTAVYYCAASDRGGFIATSGGWMDYWGKGTQVTVSS
modifications: Nanobody CA13611

Experiments:
LRRK2(G2019S) = target: T1, LRRK2(G2019S) (Homo sapiens, UniProt Q5S007, G2019S/M2397T/R50H); experiment: In cellulo phospho-Rab / LRRK2 autophosphorylation assay in HEK293T cells; type: cell-based; design: key to Functional Group (see FIG. 2d): Group 1: group 1: Nbs that inhibit both LRRK2 autophosphorylation and Rab10 phosphorylation in cells; Group 2: group 2: Nbs that inhibit only Rab10 phosphorylation; Group 3: group 3: Nbs that activate LRRK2 kinase activity; Group 4: group 4: Nbs that have no consistent/clear effect on LRRK2 kinase activity; conditions: for LRRK2 autophosphorylation at position S1292 / influence on LRRK2 kinase activity compared to the controls / Rab10 phosphorylation at position T72: HEK 293T cells co-expressing LRRK2(G2019S), Rab29 and Nb-GFP; for influence on LRRK2 kinase activity compared to the controls: Western blot; for Functional Group (see FIG. 2d): classification by effect on in cellulo LRRK2(G2019S) kinase activity; for Rab10 phosphorylation at position T72: endogenous Rab10
T1 construct: SF tag (FLAG + Twin-Strep); expressed in transfected cells; host or cells: HEK 293T
T1 sequence (Q5S007 whole entry R50H/G2019S/M2397T): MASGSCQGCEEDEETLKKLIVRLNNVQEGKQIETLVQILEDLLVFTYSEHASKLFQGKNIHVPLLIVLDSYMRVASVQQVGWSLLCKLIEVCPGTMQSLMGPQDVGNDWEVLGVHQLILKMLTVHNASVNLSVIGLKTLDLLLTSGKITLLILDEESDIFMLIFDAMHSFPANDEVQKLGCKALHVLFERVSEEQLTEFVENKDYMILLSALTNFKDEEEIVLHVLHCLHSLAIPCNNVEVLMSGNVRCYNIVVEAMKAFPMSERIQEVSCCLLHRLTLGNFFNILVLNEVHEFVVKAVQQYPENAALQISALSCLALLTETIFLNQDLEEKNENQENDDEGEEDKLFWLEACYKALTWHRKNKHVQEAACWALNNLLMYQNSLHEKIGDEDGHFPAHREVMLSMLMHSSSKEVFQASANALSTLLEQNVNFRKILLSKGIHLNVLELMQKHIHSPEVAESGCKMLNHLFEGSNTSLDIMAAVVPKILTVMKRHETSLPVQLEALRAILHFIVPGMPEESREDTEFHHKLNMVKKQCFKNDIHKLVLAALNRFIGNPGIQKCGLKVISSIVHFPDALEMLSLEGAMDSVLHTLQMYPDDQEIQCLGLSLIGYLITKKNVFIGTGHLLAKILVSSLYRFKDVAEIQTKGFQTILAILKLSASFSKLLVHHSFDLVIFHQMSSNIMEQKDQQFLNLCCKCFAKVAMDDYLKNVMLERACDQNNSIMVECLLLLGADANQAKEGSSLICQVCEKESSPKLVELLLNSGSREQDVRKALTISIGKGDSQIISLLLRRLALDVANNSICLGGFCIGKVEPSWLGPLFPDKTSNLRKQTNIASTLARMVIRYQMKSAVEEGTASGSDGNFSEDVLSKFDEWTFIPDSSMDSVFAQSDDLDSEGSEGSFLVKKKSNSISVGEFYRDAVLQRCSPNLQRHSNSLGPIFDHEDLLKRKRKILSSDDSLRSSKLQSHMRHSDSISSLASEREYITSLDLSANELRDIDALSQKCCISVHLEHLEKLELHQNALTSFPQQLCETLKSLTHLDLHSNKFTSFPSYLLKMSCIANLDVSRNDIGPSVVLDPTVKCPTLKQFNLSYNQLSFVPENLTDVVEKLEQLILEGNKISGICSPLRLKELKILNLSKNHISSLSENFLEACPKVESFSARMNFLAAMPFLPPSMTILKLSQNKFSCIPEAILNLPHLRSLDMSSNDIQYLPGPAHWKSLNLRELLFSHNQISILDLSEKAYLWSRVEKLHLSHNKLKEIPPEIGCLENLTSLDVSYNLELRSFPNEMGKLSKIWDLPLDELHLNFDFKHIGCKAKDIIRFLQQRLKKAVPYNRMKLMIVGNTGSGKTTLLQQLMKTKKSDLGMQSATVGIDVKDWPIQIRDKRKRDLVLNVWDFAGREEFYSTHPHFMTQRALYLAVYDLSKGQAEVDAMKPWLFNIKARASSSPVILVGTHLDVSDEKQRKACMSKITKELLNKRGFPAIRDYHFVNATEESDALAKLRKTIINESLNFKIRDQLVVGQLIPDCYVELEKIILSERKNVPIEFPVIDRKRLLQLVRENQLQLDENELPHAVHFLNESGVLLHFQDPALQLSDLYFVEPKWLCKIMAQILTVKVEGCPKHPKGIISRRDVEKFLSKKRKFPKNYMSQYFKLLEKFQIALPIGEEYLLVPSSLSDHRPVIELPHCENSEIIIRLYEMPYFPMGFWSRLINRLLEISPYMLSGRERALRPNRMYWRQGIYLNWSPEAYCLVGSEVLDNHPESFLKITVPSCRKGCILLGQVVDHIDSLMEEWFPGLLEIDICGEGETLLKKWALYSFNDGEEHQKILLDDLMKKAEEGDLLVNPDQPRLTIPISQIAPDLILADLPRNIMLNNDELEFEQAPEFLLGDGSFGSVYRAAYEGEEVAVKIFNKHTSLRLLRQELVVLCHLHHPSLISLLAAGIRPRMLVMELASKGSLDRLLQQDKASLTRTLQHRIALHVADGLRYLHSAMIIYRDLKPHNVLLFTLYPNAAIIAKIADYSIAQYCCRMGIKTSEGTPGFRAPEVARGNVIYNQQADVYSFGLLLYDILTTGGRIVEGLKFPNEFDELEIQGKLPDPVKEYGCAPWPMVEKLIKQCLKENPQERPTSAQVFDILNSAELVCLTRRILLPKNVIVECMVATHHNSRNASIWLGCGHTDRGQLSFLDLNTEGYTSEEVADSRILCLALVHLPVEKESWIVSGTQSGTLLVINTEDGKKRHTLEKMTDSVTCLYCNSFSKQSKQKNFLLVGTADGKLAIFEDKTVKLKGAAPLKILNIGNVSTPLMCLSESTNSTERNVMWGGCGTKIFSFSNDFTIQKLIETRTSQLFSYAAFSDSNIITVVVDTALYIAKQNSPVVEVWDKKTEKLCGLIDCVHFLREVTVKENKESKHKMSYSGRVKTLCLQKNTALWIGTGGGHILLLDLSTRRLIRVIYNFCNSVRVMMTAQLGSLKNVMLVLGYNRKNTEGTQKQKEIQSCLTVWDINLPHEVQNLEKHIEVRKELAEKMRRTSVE
Procedure, shortened: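 Cells co-transfected (PEI) with SF-tagged LRRK2(G2019S), FLAG-HA Rab29 and Nb-GFP fusions, lysed after 48 hrs. Western blot read LRRK2 pS1292 and endogenous Rab10 pT72 with site-specific antibodies, referenced to total LRRK2 and Rab10; ECL chemiluminescence on film.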

mScarlet-LRRK2 = target: T2, mScarlet-LRRK2 (Homo sapiens, UniProt Q5S007, M2397T/R50H); experiment: Confocal microscopy of LRRK2 microtubule localization in HEK293 cells; type: cell-based; conditions: HEK293 cells co-transfected with mScarlet-LRRK2 and GFP-Nb, treated with 1 μM MLi-2
T2 construct: expressed in transfected cells; host or cells: HEK293
T2 sequence (Q5S007 whole entry R50H/M2397T): as the sequence (Q5S007 whole entry R50H/G2019S/M2397T) above, with S2019G counted along it
From the text: HEK 293 cells were co-transfected with the indicated GFP-Nbs and mScarlet-LRRK2. […] Scale bar 5 μm.
FIG. 6. […] Scale bar 5 μm.
The binding of LRRK2 to microtubules subsequently reduces the kinesin—and dynein-mediated transport along microtubules.
Recent structural information has linked LRRK2 microtubule relocalization to the conformation of the kinase domain, with a closed conformation favoring LRRK2 binding to microtubules. As a consequence, the commonly used ATP-competitive type I LRRK2 inhibitors trigger this effect. In addition, it was shown before that the WD40 domain is indispensable for LRRK2-microtubule association.
A HEK293 cell line was cultured in complete media (high-glucose Dulbecco's modified Eagle's medium, 10% fetal bovine serum and Penicillin-Streptomycin-Glutamine (Gibco)). Cells were seeded on 8-well p-Slide(Ibidi) and transfected at a confluency of 50-70% with GFP-Nb and mScarlet-LRRK2 constructs, using JetPEI reagent (Polyplus transfection). […] Data acquisition was done with a ×100 oil-immersion objective with a Zeiss LSM800 confocal laser scanning microscope. Image analysis of z-scan was done using the Zeiss microscope software ZEN.

Row | Molecule | LRRK2 autophosphorylation at position S1292 (LRRK2(G2019S)) | influence on LRRK2 kinase activity compared to the controls (LRRK2(G2019S)) | Functional Group (see FIG. 2d) (LRRK2(G2019S)) | Rab10 phosphorylation at position T72 (LRRK2(G2019S)) | effect on MLi-2-induced recruitment of LRRK2 to microtubules (mScarlet-LRRK2)
1 | B1 | inhibit both Rab10 phosphorylation and LRRK2 autophosphorylation at S1292 | strongly decreased LRRK2 autophosphorylation and/or Rab10 phosphorylation | Group 1 | inhibit both Rab10 phosphorylation and LRRK2 autophosphorylation at S1292 | 
2 | B2 | inhibit both Rab10 phosphorylation and LRRK2 autophosphorylation at S1292 | strongly decreased LRRK2 autophosphorylation and/or Rab10 phosphorylation | Group 1 | inhibit both Rab10 phosphorylation and LRRK2 autophosphorylation at S1292 | 
3 | B3 | inhibit both Rab10 phosphorylation and LRRK2 autophosphorylation at S1292 | strongly decreased LRRK2 autophosphorylation and/or Rab10 phosphorylation | Group 1 | inhibit both Rab10 phosphorylation and LRRK2 autophosphorylation at S1292 | rescuing effect is most prominent
4 | B4 | inhibit both Rab10 phosphorylation and LRRK2 autophosphorylation at S1292 | strongly decreased LRRK2 autophosphorylation and/or Rab10 phosphorylation | Group 1 | inhibit both Rab10 phosphorylation and LRRK2 autophosphorylation at S1292 | 
5 | B5 |  | significant increase of LRRK2 kinase activity | Group 3 | activating Rab10 phosphorylation in cells | rescuing effect is most prominent
